Data on one substance can be found in US20250179172A1.

The target of experiment [1] is murine CD5-His (Sino Biologicals, Cat. No. 50403-M08H) (murine) (UniProt P13379). The experiment can be described thus: ELISA on murine CD5-His, antibody 0.001 nM. A general note: ELISA stands for enzyme-linked immunosorbent assay.
Experiment [2] deals with human CD5 (Arg25-Pro372)-His protein (Acro, Cat. No. CD5-H52H5) (human) (UniProt P06127). In words: ELISA on hCD5-His, antibody 10 nM.
For experiment [3], the target named is human CD5, full length, on cells (Jurkat, endogenous; CHO-K1-human CD5, transfected) (human) (UniProt P06127). The experiment can be described thus: FACS on CHO-K1-hCD5-2B2 cells.
The target is the same in experiment [4]. The experiment can be described thus: FACS on CHO-K1-hCD5-2E2 cells.
The target in experiment [5] is murine CD5-His (Sino Biologicals, Cat. No. 50403-M08H) (murine) (UniProt P13379). The experiment can be described thus: ELISA on murine CD5-His, antibody 100.00 nM.
In experiment [6] the target is monkey CD5, full length, on HEK293T cells (monkey). In words: FACS on HEK293T-monkey CD5 cells.
Experiment [7] has as its target murine CD5-His (Sino Biologicals, Cat. No. 50403-M08H) (murine) (UniProt P13379). The experiment can be described thus: ELISA on murine CD5-His, antibody 0.01 nM.
In experiment [8] the target is human CD5 (Arg25-Pro372)-His protein (Acro, Cat. No. CD5-H52H5) (human) (UniProt P06127). The experiment can be described thus: ELISA on hCD5-His, antibody 100 nM.
Experiment [9] has as its target human CD5, full length, on cells (Jurkat, endogenous; CHO-K1-human CD5, transfected) (human) (UniProt P06127). The experiment can be described thus: FACS on Jurkat cells.
The target in experiment [10] is murine CD5-His (Sino Biologicals, Cat. No. 50403-M08H) (murine) (UniProt P13379). In words: ELISA on murine CD5-His, antibody 10.00 nM.
In experiment [11] the target is human CD5 (Arg25-Pro372)-His protein (Acro, Cat. No. CD5-H52H5) (human) (UniProt P06127). In words: ELISA on hCD5-His, antibody 0.01 nM.
The target of experiment [12] is murine CD5-His (Sino Biologicals, Cat. No. 50403-M08H) (murine) (UniProt P13379). The experiment can be described thus: ELISA on murine CD5-His, antibody 0.10 nM.
In experiment [13] the target is human CD5, full length, on cells (Jurkat, endogenous; CHO-K1-human CD5, transfected) (human) (UniProt P06127). In words: FACS on CHO-K1-hCD5-2F8 cells.
For experiment [14] the target is unchanged. The experiment can be described thus: FACS on CHO-K1-hCD5-2C6 cells.
Experiment [15] addresses human CD5 (Arg25-Pro372)-His protein (Acro, Cat. No. CD5-H52H5) (human) (UniProt P06127). The experiment can be described thus: ELISA on hCD5-His, antibody 0.1 nM.
The target of experiment [16] is murine CD5-His (Sino Biologicals, Cat. No. 50403-M08H) (murine) (UniProt P13379). In words: ELISA on murine CD5-His, antibody '0.000' nM as printed.
Experiment [17] has as its target human CD5 (Arg25-Pro372)-His protein (Acro, Cat. No. CD5-H52H5) (human) (UniProt P06127). The experiment can be described thus: ELISA on hCD5-His, antibody 1 nM.
The target is the same in experiment [18]. In words: ELISA on hCD5-His, antibody 0.0001 nM.
For experiment [19] the target is unchanged. In words: ELISA on hCD5-His, antibody 0.001 nM.
Experiment [20] addresses human CD5, full length, on cells (Jurkat, endogenous; CHO-K1-human CD5, transfected) (human) (UniProt P06127). The experiment can be described thus: FACS on CHO-K1-human CD5 cells.
Experiment [21] has as its target murine CD5-His (Sino Biologicals, Cat. No. 50403-M08H) (murine) (UniProt P13379). The experiment can be described thus: ELISA on murine CD5-His, antibody 1.00 nM.

UniProt P13379, sequence (P13379 24-371 limits assumed, stated change not applied): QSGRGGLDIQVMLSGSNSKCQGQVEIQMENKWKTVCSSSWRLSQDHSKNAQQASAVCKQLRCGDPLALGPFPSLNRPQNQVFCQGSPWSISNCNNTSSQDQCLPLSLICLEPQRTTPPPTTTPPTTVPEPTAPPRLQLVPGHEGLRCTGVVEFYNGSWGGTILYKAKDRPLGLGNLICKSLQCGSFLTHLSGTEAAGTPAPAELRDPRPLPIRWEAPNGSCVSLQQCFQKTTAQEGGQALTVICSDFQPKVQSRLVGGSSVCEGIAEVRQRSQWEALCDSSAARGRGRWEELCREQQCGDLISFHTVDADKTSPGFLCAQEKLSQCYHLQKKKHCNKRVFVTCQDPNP
monkey CD5, full length, on HEK293T cells (monkey), sequence (chain, as listed by the source limits assumed): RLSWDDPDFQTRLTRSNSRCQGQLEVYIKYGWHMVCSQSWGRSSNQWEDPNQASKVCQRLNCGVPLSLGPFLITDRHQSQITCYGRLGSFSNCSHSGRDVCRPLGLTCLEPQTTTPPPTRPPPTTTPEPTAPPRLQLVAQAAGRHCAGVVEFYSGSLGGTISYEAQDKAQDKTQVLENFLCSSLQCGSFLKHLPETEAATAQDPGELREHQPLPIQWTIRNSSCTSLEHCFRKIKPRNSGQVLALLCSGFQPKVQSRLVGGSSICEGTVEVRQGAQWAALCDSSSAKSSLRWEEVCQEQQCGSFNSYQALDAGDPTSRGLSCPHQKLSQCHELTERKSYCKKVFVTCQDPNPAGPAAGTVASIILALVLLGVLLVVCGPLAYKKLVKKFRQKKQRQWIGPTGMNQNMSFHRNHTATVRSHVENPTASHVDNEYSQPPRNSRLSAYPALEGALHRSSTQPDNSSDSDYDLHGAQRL

On to “Anti-HEL-hIgG1 (antibody against hen egg lysozyme, Biointron Cat. No. B117901)”, for which the OD450 in experiment [1] came to 0.11 OD450; in [2], 0.05 OD450; in experiment [5], 0.12 OD450; in experiment [7], 0.11 OD450; in [8], 0.06 OD450; in experiment [10], 0.12 OD450. Besides, the OD450 in experiment [11] worked out at 0.05 OD450; in experiment [12] it was 0.11 OD450; in experiment [15] it was 0.05 OD450; in experiment [16], 0.11 OD450; in [17], 0.05 OD450; in experiment [18], 0.05 OD450. In addition, the values for the OD450 in [19] and in experiment [21] were 0.05 OD450 and 0.11 OD450, respectively. The Mean fluorescence intensity of cells stood at 65.9 MFI in experiment [3]; 65.9 MFI in experiment [4]; 97 MFI in experiment [9]; 65.9 MFI in [13]; 65.9 MFI in experiment [14]. The Max MFI was found to be 79 MFI in experiment [6], 62 MFI in experiment [9] and 93 MFI in experiment [20].
